Measured values from patent US20230250148A1 (published 2023).
Where two headings read alike, the source gives them in different places.

B1: insulin-Fc fusion protein of SEQ ID NO: 75 (Fc fusion)
chain: FVNQHLCGSHLVEALELVCGERGFHYGGGGGGSGGGGGIVEQCCTSTCSLDQLENYCGGGGGQGGGGQGGGGQGGGGGECPPCPAPPVAGPSVFLFPPKPKDTLMISRTPEVTCVVVDVSHEDPEVQFNWYVDGVEVHNAKTKPREEQFNSTFRVVSVLTVVHQDWLNGKEYKCKVSNKGLPAPIEKTISKTKGQPREPQVYTLPPSREEMTKNQVSLTCLVKGFYPSDIAVEWESNGQPENNYKTTPPMLDSDGSFFLYSKLTVDKSRWQQGNVFSCSVMHEALHNHYTQKSLSLSPG
B2: insulin-Fc fusion protein of SEQ ID NO: 26 (Fc fusion)
chain: FVNQHLCGSHLVEALELVCGERGFHYGGGGGGSGGGGGIVEQCCTSTCSLDQLENYCGGGGGQGGGGQGGGGQGGGGGDCPKCPAPEMLGGPSVFIFPPKPKDTLLIARTPEVTCVVVDLDPEDPEVQISWFVDGKQMQTAKTQPREEQFNGTYRVVSVLPIGHQDWLKGKQFTCKVNNKALPSPIERTISKARGQAHQPSVYVLPPSREELSKNTVSLTCLIKDFFPPDIDVEWQSNGQQEPESKYRTTPPQLDEDGSYFLYSKLSVDKSRWQRGDTFICAVMHEALHNHYTQESLSHSPG
modifications: native N-glycosylation site cNg-NB151

Assays:
[1] = target: T1, biotinylated human complement component C1q (human, UniProt P02745 23-245; P02746 28-253; P02747 29-245, biotinylated, site not stated); assay: ELISA, fusion protein coated, biotinylated human C1q at 1000 ng/mL
T1 construct: also called biotinylated-C1q
Description: The binding of insulin-Fc fusion proteins to complement component C1q at pH 7.4 was conducted using an ELISA assay as follows using human complement component C1q. Insulin-Fc fusion proteins were diluted to 10 µg/mL in sodium bicarbonate buffer at pH 9.6 and coated on Maxisorp (Nunc) microtiter plates overnight at 4° C., after which the microplate strips were washed 5 times with PBST (PBS/0.05% Tween-20) buffer and blocked with Superblock blocking reagent (ThermoFisher). […] The plate absorbance was read in an ELISA plate reader at 450 nm (OD450), and the OD450 values (proportional to the binding of complement component C1q to insulin-Fc protein) were plotted against log concentrations of complement component C1q added to each well to generate binding curves using GraphPad Prism software. […] In order to further compare differences across multiple insulin-Fc fusion proteins run at different times, the human C1q assay OD450 Ratio was calculated as the OD450 of a test insulin-Fc fusion protein compound obtained at a biotinylated-C1q concentration of 1000 ng/mL, divided by the OD450 of a reference insulin-Fc fusion protein of SEQ ID NO: 76 obtained at a biotinylated-C1q concentration of 1000 ng/mL.

[2] = target: T2, human insulin receptor (IR) on human IM-9 cells (human, UniProt P06213 28-1382); assay: competition with biotinylated RHI on IM-9 cells, flow cytometry, 4 C
T2 construct: whole, on cells; also called human IR
Description: (§1) 40 µL of an IM-9 cell suspension (8×10⁶ cells/mL) was then added to each well by multichannel pipette, mixed again gently and incubated on ice for 30 min to allow competitive binding on the IR on IM-9 cells. Cells were then washed twice with 275µL of ice-cold FACS wash buffer (HBSS/2mM EDTA/0.1% Na-azide + 0.5% horse serum) by centrifuging the V-bottom plate at 3000 rpm for 3 min and aspirating the supernatant. Cells were then resuspended in 40µL of FACS staining medium containing 1:100 diluted Streptavidin-PE (Life Technologies) for 20 min on ice. Cells were then washed once with 275 µL of ice-cold FACS buffer and finally fixed with 3% paraformaldehyde for 10 min at room temp. Cells were then washed once with 275 µL of ice-cold FACS buffer and resuspended in 250µl of FACS buffer for analysis.
Next, the insulin-Fc fusion protein of SEQ ID NO: 76 was evaluated for the potential for in vivo bioactivity.

biotinylated human FcRn = target: T3, biotinylated human FcRn (human, UniProt P55899 24-297; P61769 21-119, limits assumed, biotinylated, site not stated); assay: ELISA pH 5.5, fusion protein coated, biotinylated human FcRn titrated
T3 construct: Bought reagent (Immunitrack); composition not described; also called human FcRn receptor
Description: Insulin-Fc fusion proteins comprising Fc fragments were diluted to 10 µg/mL in sodium bicarbonate pH 9.6 buffer and coated in duplicate on Maxisorb ELISA plate strips for 1-2 hours at RT. The strips were then washed 5 times with PBST (PBS/0.1% Tween-20) buffer and blocked with Superblock blocking reagent (ThermoFisher). Strips for FcRn binding were then washed again 3 times with pH 5.5 MES/NaCl/Tween (50 mM MES/150mM NaCl/0.1% Tween-20) buffer before addition of the FcRn reagent (biotinylated human FcRn; Immunitrack). Serial dilutions (1:3X dilutions) of biotinylated FcRn reagent were prepared in pH 5.5 MES/NaCl/Tween/5%Superblock buffer at concentrations from 6000 ng/mL to 8.23 ng/mL and loaded at 100 µL/well using a multichannel pipettor onto the strips coated with the insulin-Fc fusion protein compounds. The assay plate was then incubated for 1.5 hours at room temperature. FcRn binding strips were washed 4 times with pH 5.5 MES/NaCl/Tween buffer and then loaded with 100 µl/well streptavidin-HRP diluted 1:10000 in pH 5.5 MES/NaCl /5%Superblock buffer. After incubating for 45 minutes, strips were washed again 5 times with pH 5.5 MES/NaCl/Tween buffer. […] The plate was read in an ELISA plate reader at a wavelength of 450 nm. […] EC50 values for each binding curve were calculated to compare between different compounds.

[3] = target: T4, biotinylated recombinant human Fc(gamma)RI (human, UniProt P12314 16-288, biotinylated, site not stated); assay: ELISA, fusion protein coated, biotinylated rhFc(gamma)RI at 3000 ng/mL
T4 construct: Bought reagent; construct not described; also called rhFc(gamma)RI; Fc(gamma) receptor I
Description: The binding of insulin-Fc fusion proteins to the Fc(gamma)RI at pH 7.4 was conducted using an ELISA assay as follows using human Fc(gamma)RI (i.e., rhFc(gamma)RI). Insulin-Fc fusion proteins were diluted to 10 µg/mL in sodium bicarbonate buffer at pH 9.6 and coated on Maxisorp (Nunc) microtiter plates overnight at 4° C., after which the microplate strips were washed 5 times with PBST (PBS/0.05% Tween-20) buffer and blocked with Superblock blocking reagent (ThermoFisher). […] The plate was read in an ELISA plate reader at 450 nm, and the OD450 values (proportional to the binding of rhFc(gamma)RI to insulin-Fc protein) were plotted against log concentrations of rhFc(gamma)RI added to each well to generate binding curves using GraphPad Prism software. […] In order to compare differences across multiple insulin-Fc fusion proteins run at different times, the human Fc(gamma)RI assay OD450 Ratio was calculated as the OD450 value of a test insulin-Fc fusion protein compound obtained at a biotinylated-Fc(gamma)RI concentration of 3000 ng/mL, divided by the OD450 value of a reference insulin-Fc fusion protein of SEQ ID NO: 76 obtained at a biotinylated-Fc(gamma)RI concentration of 3000 ng/mL.

[4] = target: T2, human insulin receptor (IR) on human …; assay: competition with biotinylated RHI on IM-9 cells, flow cytometry, 4 C; remark: listed apart in the source
Description: as §1
(§2) The insulin-Fc fusion proteins were manufactured in HEK293 cells according to Example 1 and purified using a Protein A column according to Example 4. Their structures were confirmed according to Example 6 by non-reducing and reducing CE-SDS, and the sequences were further identified by LC-MS with glycan removal according to Example 8. Their %homodimer content was measured by size-exclusion chromatography according to Example 10, and their insulin receptor binding affinities were measured according to Example 12.

[5] = target: T4, biotinylated recombinant human …; assay: ELISA, fusion protein coated, biotinylated rhFc(gamma)RI at 3000 ng/mL; remark: listed apart in the source
Description: The binding of insulin-Fc fusion proteins to the Fc(gamma)RI at pH 7.4 is conducted using an ELISA assay as follows using human Fc(gamma)RI (i.e., rhFc(gamma)RI). Insulin-Fc fusion proteins are diluted to 10 µg/mL in sodium bicarbonate buffer at pH 9.6 and coated on Maxisorp (Nunc) microtiter plates overnight at 4° C., after which the microplate strips are washed 5 times with PBST (PBS/0.05% Tween-20) buffer and blocked with Superblock blocking reagent (ThermoFisher). Serial dilutions of biotinylated rhFc(gamma)RI (recombinant human Fc(gamma)RI; R&D Systems) are prepared in PBST/10% Superblock buffer from 3000 ng/mL to 4.1 ng/mL and loaded at 100 µL/well onto the microplate strips coated with insulin-Fc fusion protein. The microtiter plate is incubated for 1 hour at room temperature after which time the microplate strips are washed 5 times with PBST and then loaded with 100 µL/well of streptavidin-HRP diluted 1:10000 in PBST/10% Superblock buffer. After incubating for 45 min, the microplate strips are washed again 5 times with PBST. TMB is added to reveal the bound Fc(gamma)RI proteins and is stopped with ELISA stop reagent (Boston Bioproducts). The plate is read in an ELISA plate reader at 450 nm, and the OD450 values (proportional to the binding of rhFc(gamma)RI to insulin-Fc protein) are plotted against log concentrations of rhFc(gamma)RI added to each well to generate binding curves using GraphPad Prism software. For groupings of compounds with somewhat similar curves, the OD450 at one of the higher concentrations, for instance at rhFc(gamma)RI concentrations of 3000 ng/mL, can be used to identify differences between coated insulin-Fc fusion protein compounds. […]
Finally, select compounds were tested for their likelihood to interact with the immune system by measuring their Fc(gamma) receptor binding activity according to the procedure of Example 15.

[6] = target: T2, human insulin receptor (IR) on human …; assay: competition with biotinylated RHI on IM-9 cells, flow cytometry, 4 C; remark: listed apart in the source
Description: as §1, §2

biotinylated canine FcRn = biotinylated canine FcRn (canine, UniProt A0A8I3PFR8 25-347, biotinylated, site not stated); assay: ELISA pH 5.5, fusion protein coated, biotinylated canine FcRn titrated
Description: Insulin-Fc fusion proteins comprising Fc fragments of canine origin were diluted to 10 µg/ml in sodium bicarbonate pH 9.6 buffer and coated in duplicate on Maxisorb ELISA plate strips for 1-2 hours at RT. The strips were then washed 4 times with PBST (PBS/0.1% Tween-20) buffer and blocked with Superblock blocking reagent (ThermoFisher). Strips for FcRn binding were then washed again twice with pH 5.5 MES/NaCl/Tween (50 mM MES/150mM NaCl/0.1% Tween-20) buffer before addition of the FcRn reagent (biotinylated canine FcRn; Immunitrack). Serial dilutions (1:3X dilutions) of biotinylated FcRn reagent were prepared in pH 5.5 MES/NaCl/Tween/10%Superblock buffer at concentrations from 1000 ng/ml to 0.45 ng/mL and loaded at 100 µL/well using a multichannel pipettor onto the strips coated with the insulin-Fc fusion protein compounds. The assay plate was then incubated for 1 hour at room temperature. FcRn binding strips were washed 4 times with pH 5.5 MES/NaCl/Tween buffer and then loaded with 100 µl/well streptavidin-HRP diluted 1:10000 in pH 5.5 MES/NaCl /10%Superblock buffer. After incubating for 45 minutes, strips were washed again 4 times with pH 5.5 MES/NaCl/Tween buffer. […] The plate was read in an ELISA plate reader at a wavelength of 450 nm. […] EC50 values for each binding curve were calculated to compare between different compounds.

[7] = target: T2, human insulin receptor (IR) on human …; assay: competition with biotinylated RHI on IM-9 cells, flow cytometry, 4 C; remark: listed apart in the source
Description: as §1, §2

| Binder | OD450 Ratio (reference SEQ ID NO: 76) [1] | IC50 [2] | EC50 (biotinylated human FcRn) | OD450 Ratio (reference SEQ ID NO: 76) [3] | IC50 [4] | OD450nm [5] | OD450nm minus assay background [5] | ratio to SEQ ID NO: 36 [5] | IC50 [6] | EC50 (biotinylated canine FcRn) | IC50 [7] |
| --- | --- | --- | --- | --- | --- | --- | --- | --- | --- | --- | --- |
| B1 | 0.309 | 1730 nM | 0.462 µg/mL | 0.045 |  |  |  |  |  |  |  |
| B2 |  |  |  |  | 2340 nM | 0.368 | 0.311 | 0.84 | 2340 nM | 0.599 µg/mL | 2340 nM |
